Source: paper PMC5643146

Target: xTCF1
Experiment: co-IP; binding competition: HEK293T cells transfected with flag-TCF and β-cat1 or β-cat4 alone, together, or with β-cat2 as control; IP with FLAG-M2 beads; precipitated β-catenins quantified and normalised against total β-catenins in whole cell lysates

| relative binding to TCF, β-cat1 alone and β-cat1+β-cat2 co-transfected compared (negative control) | relative binding to TCF, β-cat1 alone and β-cat1+β-cat4 co-transfected compared | relative binding to TCF, β-cat4 alone and β-cat1+β-cat4 co-transfected compared | relative binding to TCF, β-cat4 alone and β-cat4+β-cat2 co-transfected compared (negative control) | Substance |
| --- | --- | --- | --- | --- |
| 1.11 | 0.63 |  |  | Smed-β-catenin1 (natural protein) |
|  |  | 0.51 | 0.91 | Smed-β-catenin4 (natural protein) |
